Kd and kon data for two molecules are collected here from publication PMC6454087 (Frontiers in Immunology, 2019).

The chains are these.
B1: mouse WT sNASP (somatic nuclear autoantigenic sperm protein), B6 allele (natural protein)
chain: MATESTAAAAIAAELVSADKIEDAPAPSTSADKMESLDVDSEAKKLLGLGQKHLVMGDIPAAVNAFQEAASLLGKKYGETANECGEAFFFYGKSLLELARMENGVLGNALEGVHVEEEEGEKTEDESLVENNDNVDETEGSEEEDRENDKAEETPNESVLEKKSLQENEEEEIGNLELAWDMLDLAKIIFKRQETKEAQLYAAQAHLKLGEVSVESENYIQAVEEFQACLSLQEQYLEAHDRLLAETHYQLGLAYGYNSQYDEAVAQFGKSIDVIEKRMAVLHEQMKEAEGSFTEYEKEIEELKELLPEIREKIEDAKESQRSGNVAELALKATLVESSTSGFTPSGAGASVSMIASRKPTDGASSSNCVTDISHLVRKKRKPEEESPRKDDAKKAKQEPEVNGGSGDAVSSGKEVSENMEAEAENQAESQTAEGTVESAATIKSTAC
modifications: Somatic isoform of 448 aa = 773-aa tNASP entry lacking 325 residues (internal testis-specific exon). Junction 137/463 set by homology to human sNASP and the printed length, not printed in the paper. …

For one assay, the target named is mouse histone H4 (mouse, UniProt P62806 1-103). Kind of assay: BLI; Octet K2, 30 C; sNASP WT or variant immobilised on aminopropylsilane (APS) biosensors, histones in assay buffer at various concentrations (62.5 to 1,000 nM shown for H4), association 240 s; n = 4. The following applies: both partners purified.
Assay [1] deals with B1. Described as above. The following applies: both partners purified.

As a reminder, the Kd is the concentration at which binding is half-saturated. High values mean lower affinity, low ones higher affinity. For orientation: kon means the rate constant with which the complex forms. Low values mean slower complex formation, high ones faster complex formation.

Regarding B1, in the assay with mouse histone H4, binding was put at a Kd of 40.7 nM and the kon was 1990 M⁻¹ s⁻¹.

B2: mouse histone H1a (natural protein, UniProt P43275 1-213, looked up)
chain: MSETAPVAQAASTATEKPAAAKKTKKPAKAAAPRKKPAGPSVSELIVQAVSSSKERSGVSLAALKKSLAAAGYDVEKNNSRIKLGLKSLVNKGTLVQTKGTGAAGSFKLNKKAESKAITTKVSVKAKASGAAKKPKKTAGAAAKKTVKTPKKPKKPAVSKKTSKSPKKPKVVKAKKVAKSPAKAKAVKPKASKAKVTKPKTPAKPKKAAPKKK
notes: mouse histone H1a (H1.1); source: bought: Lifespan Biosciences
For the molecule B2, in assay [1], binding was characterised by a dissociation constant (Kd) of 387 nM and the kon was determined as 10100 M⁻¹ s⁻¹.
